The target of the test is TlLhpI (OCD-like protein / Δ1-pyrroline-2-carboxylate reductase from Thermococcus litoralis DSM 5473) (Thermococcus litoralis DSM 5473). Briefly: SEC. (In gel filtration, larger molecules generally elute earlier.)

What is called stoichiometry N is the number of molecules, sites or subunits per partner or assembly.

“TlLhpI (OCD-like protein / Δ1-pyrroline-2-carboxylate reductase from Thermococcus litoralis DSM 5473) (enzyme)” gave a stoichiometry N of 2.

Values taken from PMC4141209.
